The series in a line: folding stability dG unfold (combined trypsin and chymotrypsin); higher = more stable. As for the experimental part: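 Folding stability of de novo designed mini-proteins (<80 aa, no Cys; designed by TrROS, TrMRF, ProteinMPNN and the joint model) was measured by cDNA display proteolysis with trypsin and chymotrypsin. Each protease was used at 11 concentrations in a threefold dilution series plus a no-protease condition. K50 was inferred by Bayesian fitting of sequencing counts, and dG unfold was derived against a sequence-predicted unfolded-state K50 (Tsuboyama et al. method). Sequences shown include variable-length N-terminal GS-type padding (SAGGSAGG...) inside a display construct carrying a PA tag. Rows were kept only if the AF2 dimer inter-PAE was >15, to exclude likely homo-oligomers.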
As for “SAGGSAGGSHWAEELAKEAGLKVKIDDMMKNPDGYPYVIVKIKPPDGGKRTVMFDGNQPRIYPSAGGSAGGS [r12_279_TrROS]”, the “folding stability dG unfold” value was less than -1 kcal/mol.
To “SAGGSAGGSKIKIEDIHPNPNGMFMFRIRPPDNGKPREVPFDSPEDAERFADELEEDGYKIEISAGGSAGGS [r20_177_TrROS]” belongs less than -1 kcal/mol; to “SAGGSAGGSLKPGAPVMYRIRNPENGRKFPFQIKIKEDGGIDIEYPSNGKTMTIPPDNIEPVPSAGGSAGGS [r12_726_TrROS]”, less than -1 kcal/mol; to “SAGGSAGGSLRPGEPFKIYSPNGEKFPFKIESVEVDPDGEIPLTITNPNGKPIGPFPYRIKPLSAGGSAGGS [r12_735_TrROS]”, less than -1 kcal/mol.
To “SAGGSAGGSMDLEDMKIKSIYIPDNPIMITFKNKGKHRTRTIPEDNWQILKDLLGDGDITIHPSAGGSAGGS [r12_604_TrROS]” belongs less than -1 kcal/mol.
Regarding “SAGGSAGGSMEMETYPLNGFTVMVMRNPNDGRETVQIFMPDNGKPIQMPPEDLQQDPDLIDALSAGGSAGGS [r12_817_TrROS]”, the “folding stability dG unfold” value is less than -1 kcal/mol.
With “SAGGSAGGSMKKLLVERKPDGTVTVVDVLPADRSAEELPPEELTSFTLLPFESLEEALKKAAASAGGSAGGS [r12_452_JUSTAS]”, the “folding stability dG unfold” value is less than -1 kcal/mol.
Consider “SAGGSAGGSMKYLVRFPEGGSLPFPDGSSVPMKPGEVLEVESPADVEALKKLAPGRDIEVEPVSAGGSAGGS [r12_987_TrMRF]”, for which the “folding stability dG unfold” value is less than -1 kcal/mol.
In the case of “SAGGSAGGSMNEVSEEEAIAEAVAKHAPDEPVTYELKDNKKIVVNVNGADPANVSIEVIPIKNSAGGSAGGS [r12_648_JUSTAS]” it was less than -1 kcal/mol; in that of “SAGGSAGGSNIKDALDNFPPGYQTDVDPNSGTISVRFPDEGWEHQIEIPAEEGKVEINEWKPYSAGGSAGGS [r12_82_TrROS]”, less than -1 kcal/mol; in that of “SAGGSAGGSNVEIDTTRTPDRYTVKIRFPDNGKKVEIPFDPGQPPNQAKDRAKELAKKNGIKISAGGSAGGS [r12_764_TrROS]”, less than -1 kcal/mol.
For “SAGGSAGGSPIPVPLVIFFPDSETTEIVPATPELFEALAAELAALGPVVRRGPERTMTITVPRSAGGSAGGS [r12_292_JUSTAS]”, the “folding stability dG unfold” value was less than -1 kcal/mol.
To “SAGGSAGGSPIRRALRYVREQFPPGQPYRVRARNPGNGKEREIEVPWNDPEELDNTKDIEVEPYSAGGSAGG [r6_402_TrROS]” belongs less than -1 kcal/mol; to “SAGGSAGGSPKPMKLRFRNPDNGMPFEVNVDKIDPDGQLRVEIEQPNGKTRKIDNIDNVEIEKSAGGSAGGS [r12_118_TrROS]”, less than -1 kcal/mol.
In the case of “SAGGSAGGSPKWKVEPIGNRIRIMIPDGPYYTARLPDDVKLDLDEGKFKFPPGLEVEPVPLKESAGGSAGGS [r20_158_TrROS]” it was less than -1 kcal/mol; in that of “SAGGSAGGSPPPKVKVKKFHRDPPNGYVRANIEFPDKRDIEIQMENMPPDQAEEKAKNLAKKLSAGGSAGGS [r20_181_TrROS]”, less than -1 kcal/mol.
To “SAGGSAGGSRYFIRIELRHPDDGQEYEPTIPINPGQTEEQVKQEIREHHPGADIKDIEIYPMDSAGGSAGGS [r12_738_TrROS]” belongs less than -1 kcal/mol.
On to “SAGGSAGGSSAITHPDSDAGVAPVATTRSPNATPETVLRDDSPDPRRWILTASGERRVEPLLESAGGSAGGS [r12_205_JUSTAS]”, for which the “folding stability dG unfold” value is less than -1 kcal/mol.
Consider “SAGGSAGGSSDIKIYEIPEKGEIVVERPPSEKVTIDINNHPLEGSLTPLPGNKYLWKVKIKSPSAGGSAGGS [r12_970_JUSTAS]”, for which the “folding stability dG unfold” value was less than -1 kcal/mol.
In the case of “SAGGSAGGSSHMEVEKAAKELSSEVGFEKSSNGPDSVSFTFDPAKPELVRALAEKFGIDLKVESAGGSAGGS [r12_74_JUSTAS]” it was less than -1 kcal/mol.
With “SAGGSAGGSSLAEEIARLLGLESETLSESVSPTPRSLTLTRFKPPEDGELIVFYDGEVPTILPSAGGSAGGS [r12_279_JUSTAS]”, the “folding stability dG unfold” value is less than -1 kcal/mol.
In the case of “SAGGSAGGSSMPSDVPVDIPVKVTRTVPNGPTSEEELVLSTTRPDASIEEVLEELKKKGWTIESAGGSAGGS [r20_27_JUSTAS]” it was less than -1 kcal/mol; in that of “SAGGSAGGSSPKRTIEITLPKDASEEELQATANAIAKELGAPNVQVEVSPVPEDYRLVKVIVESAGGSAGGS [r20_208_JUSTAS]”, less than -1 kcal/mol; in that of “SAGGSAGGSSPPDATIPREEAEKYVKEKVREENLKAGKPLKKVKKLIVKEDPNSDNVKVTVIESAGGSAGGS [r12_583_JUSTAS]”, less than -1 kcal/mol.
In the case of “SAGGSAGGSSWDEVREIAREARKEGFPMVSIRYDDKNTHQINFEDGPIEPLPNPDNVKIEIMRSAGGSAGGS [r20_44_TrROS]” it was less than -1 kcal/mol.
In the case of “SAGGSAGGSSYTLVRVVEHPDSVVEYYKAPDGTVIVKRNDEEIEIPPSVPASSLPEDADVVLESAGGSAGGS [r12_594_JUSTAS]” it was less than -1 kcal/mol; in that of “SAGGSAGGSTAEEVAEALGFEEAEVTPTGLVEVRKLPNGGYARAYRYTLKLRSPDGTERTFPISAGGSAGGS [r12_221_TrMRF]”, less than -1 kcal/mol.
As to “SAGGSAGGSTAGEAESEEISVEPLPDGPYLVTRSVVRTLPDGSSEVTETVPSIATDPAEIAEASAGGSAGGS [r12_386_JUSTAS]”, the “folding stability dG unfold” value was less than -1 kcal/mol.
To “SAGGSAGGSVIRIPPDDLRANLKPGMMVMIKDPGKPRMFPWDDLDKLPPNDPVEIEIIPMEPGSAGGSAGGS [r12_501_TrROS]” belongs less than -1 kcal/mol; to “SAGGSAGGSVVIPMEDLSNMPWERIRDQIKKSPDPVTITMPNPEGMKRAQDLFKEEGVPITVVSAGGSAGGS [r12_97_TrROS]”, less than -1 kcal/mol.
On to “SAGGSAGGSYPFRIKIVNPNGKKIIPIPYQFDPEDGKLEPFTEDQLDEIAKQLGPNFKKIEIYSAGGSAGGS [r12_514_TrROS]”, for which the “folding stability dG unfold” value is less than -1 kcal/mol.
On to “SAGGSAGGWIEIDPNDGKLEILYPPGMNPDELTDFIEEFGFPFKPKSVEYNPDNGMRKVEFKFKSAGGSAGG [r6_396_TrROS]”, for which the “folding stability dG unfold” value is less than -1 kcal/mol.
Consider “SAGGSAGGYEIPIKIKITNPDNNKPVTFEIPIRYDKDNGRPPSPEQIARELAERSPGFKITEIESAGGSAGG [r6_821_TrROS]”, for which the “folding stability dG unfold” value was less than -1 kcal/mol.
In the case of “SAGGSAKPYIVIKGEYENPGKKHDMDIQIPPEDLDNPERARELAEEIKDEMRQQGAPVKDVEIEPVSAGGSA [r15_781_TrROS]”, the “folding stability dG unfold” value is less than -1 kcal/mol.
To “SAGGSAMPVKIELVERKRDPNSDTYYATVKITNPNKTITLPIKLDVPEEEAEKEVKEKAEEIAKKGSAGGSA [r15_979_JUSTAS]” belongs less than -1 kcal/mol; to “SAGGSAPENDPWVWRVKIPYKKKNPNGEPERREREITFPFKSPEDAENFRDALREDGAEIEPVEPMSAGGSA [r15_117_TrROS]”, less than -1 kcal/mol.
In the case of “SAGGSAPFQIKEPDGKTETFPMNDIPPDLIKNFPDVKITMPGGQERKIPPGQKLSPGGMMTIQIPKSAGGSA [r15_733_TrROS]” it was less than -1 kcal/mol.
In the case of “SAGGSAPIEIEVRLGDKPRTIDIEPNPEGMYPIKVYNDGPGKPKEHMIPPNNLDELKNLDPDRIEISAGGSA [r15_629_TrROS]” it was less than -1 kcal/mol.
For “SAGGSARKITIDVQPHPNGEFPINVKIRGPNGEPKKERPFNFDSPQAAKNKLKDFADKNGYEVEIWSAGGSA [r15_242_TrROS]”, the “folding stability dG unfold” value is less than -1 kcal/mol.
With “SAGGSATIEIDPPHGKIEIEVNVPVYEKRKDPDGKEEPEPQELPPEEAQEFAKMMADTFAQKLNGKSAGGSA [r15_365_TrROS]”, the “folding stability dG unfold” value is less than -1 kcal/mol.
In the case of “SAGGSMETIELTINLGSKTITKTEEVSPGREEELIEKIREEGYPEIKVDKITIKPPDGSTERTIGLKSAGGS [r8_219_JUSTAS]” it was less than -1 kcal/mol.

The record behind these values is the supplement of paper PMC12764529.
